ATF6 activation data for one molecule are collected here from publication PMC9036094, “Antigen-derived peptides engage the ER stress sensor IRE1α to curb dendritic cell cross-presentation” (The Journal of Cell Biology, 2022).

This assay has as its system ATF6 in BMDCs. Put plainly: ATF6 activation in BMDCs (immunoblot, proteolytic processing). It is filed as cell-based, mouse. The following applies: MG132 5 μM or ovalbumin 500 μg/ml, in words. The procedure:
Figure S1. Antigen pulsing of BMDCs activates IRE1α. (A) BMDCs were treated with MG132 (5 μM) or ovalbumin (500 μg/ml) for indicated time points and analyzed by IB. (B) BMDCs were pulsed with ovalbumin (500 μg/ml) and G9668 (3 μM) for indicated time periods and analyzed by IB. (C) Molecular structure, potency, and kinase selectivity of G9668. (D) Schematic representation of G9668 interaction with 220 kinases at 1 μM. Size and color of circles represent interaction strength. Analysis was conducted by KinomeScan. (E) BMDCs were pulsed for 4 h with APC-tagged ovalbumin or soluble CD4-Fc protein (500 μg/ml) with amiloride (10 μM); uptake of protein was assayed by flow cytometry (n = 3). (F) WT or MyD88 KO Flt3L-derived BMDCs were pulsed with ovalbumin (500 μg/ml) or soluble CD4-Fc protein (500 μg/ml), or treated with LPS (10 μg/ml) for 4 h and analyzed by IB. (G) MEFs and BMDCs were pulsed with ovalbumin or treated with Tg (100 nM) for 4 h and analyzed by IB. Images in A, B, F, and G represent at least two similar experiments, and molecular weights represent kD; E bar graphs represent mean ± SD from three independent biological repeats. Analysis for E was performed using unpaired, two-tailed t test; *, P ≤ 0.05; **, P ≤ 0.01. Source data are available for this figure: SourceData FS1. […]
For orientation: A western blot detects proteins with antibodies after separation by electrophoresis.

B1: ovalbumin: classical protein antigen ovalbumin (Sigma-Aldrich) (protein)
chain: MGSIGAASMEFCFDVFKELKVHHANENIFYCPIAIMSALAMVYLGAKDSTRTQINKVVRFDKLPGFGDSIEAQCGTSVNVHSSLRDILNQITKPNDVYSFSLASRLYAEERYPILPEYLQCVKELYRGGLEPINFQTAADQARELINSWVESQTNGIIRNVLQPSSVDSQTAMVLVNAIVFKGLWEKAFKDEDTQAMPFRVTEQESKPVQMMYQIGLFRVASMASEKMKILELPFASGTMSMLVLLPDEVSGLEQLESIINFEKLTEWTSSNVMEERKIKVYLPRMKMEEKYNLTSVLMAMGITDVFSSSANLSGISSAESLKISQAVHAAHAEINEAGREVVGSAEAGVDAASVSEEFRADHPFLFCIKHIATNAVLFFGRCVSP
In the case of B1, the ATF6 activation entry was “relatively minimal activation”.
